13 molecules from US20260069689A1 (Regeneron, published 2026) can be followed below.

A word on the Kd: it is a measure of binding affinity in units of concentration. As a reminder, the koff is the first-order rate constant of dissociation. Read a low koff as a long-lived complex. Usually kon stands for the rate constant with which the complex forms. In general, t½ refers to the time in which the quantity being followed falls by half.

Assay [1] deals with T1, SARS-COV-2 RBD extracellular domain expressed with a C-terminal mouse IgG2a Fc (SARS-CoV-2). Description: Biacore SPR, mAb captured on anti-hFc, 37 C. (Surface plasmon resonance follows binding to a sensor surface in real time, without labels.)
Assay [2] deals with T1, SARS-COV-2 RBD extracellular domain …. Description: Biacore SPR, mAb captured on anti-hFc, 25 C.

Numbering of substitutions follows the chain as printed.

B1: mAb14312 (antibody, V domains shown)
VH: EVQLVESGGGLVQPGGSLRLSCAASGFTVSRSYMTWVRQAPGKGLEWVSVIFTGGRTDHADSVKGRFTISRHNSKNTLYLQMNSLRTEDTAVYYCARVAIVGATGAFDIWGQGTMVTVSS
VL: QSVLTQPPSVSGAPGQRVTISCTGSSSNIGAGDDVHWYQQLPGTAPKLLIYGNSNRPSGVPDRFSGSKSGTSASLAITGLQAEDEADYYCQSYDSSLSGSVVFGGGTKLTVLG
In assay [1], B1 came in with a Kd of 0.0347 nM, a koff of 5.8e-05 s⁻¹, an on-rate (kon) of 1.67e+06 M⁻¹ s⁻¹ and a t½ of 3.32 h. Moreover, in assay [2], binding was characterised by a dissociation constant (Kd) of 0.0334 nM, the koff was found to be 5.6e-05 s⁻¹, the kon turned out to be 1.68e+06 M⁻¹ s⁻¹ and the t½ worked out at 3.44 h.

B2: mAb14257 (antibody, V domains shown)
VH: B1 VH with T35N, I51V, R56T, D58K, A60T, H72D, K75M, T87P, G102E, A103T
VL: B1 VL with S25T, G32D, D33F, L41F, N53H, S54T, V60I
In assay [1], B2 came in with a Kd of 0.121 nM, a koff of 0.000339 s⁻¹, a kon of 2.81e+06 M⁻¹ s⁻¹ and a t½ of 0.568 h. In assay [2], binding was put at a Kd of 0.0907 nM, the koff came to 0.000254 s⁻¹, the kon came out at 2.81e+06 M⁻¹ s⁻¹ and the t½ is 0.757 h.

B3: mAb14315 (antibody, V domains shown)
VH: QVQLVQSGAEVKKPGSSVKVSCKASGDTFSTYAINWVRQAPGQGLEWMGRFIHIFGTANYAQKFQGRVTITADESTSTAYMELRSLRSEDTAVYYCARDGVDYGDYRPDYWGQGTLVTVSS
VL: EIVLTQSPGTLSLSPGERATLSCRASQSVSSNYLAWYQQKPGQAPRLLIYGASSRATGIPERFSGSGSGTDFTLTISRLEPEDFAVYYCQQYGSSLYTFGQGTKLEIKR
Take B3: in assay [1], the Kd was determined as 0.0903 nM, the koff worked out at 7.91e-05 s⁻¹, the kon was determined as 877000 M⁻¹ s⁻¹ and the t½ was 2.43 h. In assay [2], this molecule gave a Kd of 0.0784 nM, a dissociation rate constant (koff) of 6.26e-05 s⁻¹, a kon of 799000 M⁻¹ s⁻¹ and a t½ of 3.07 h.

B4: mAb14294 (antibody, V domains shown)
VH: EVQLVESGGGLVQPGGSLRLSCAASGFTFSNHWMDWVRQAPGKGLVWVSRINSDGSSTDYADSVRGRFTMSRDNAKNTLYLQMSSLRAEDTAVYYCAREGMIFGAVIIPGWYFDLWGRGALVTVSS
VL: EIVLTQSPGTLSLSPGERATLSCRASQSVSSSQLAWYQQKPGQAPRLLIYGASSRATGIPDRFSGSGSGTDFTLTISRLEPEDFAVYYCQQYDSFGQGTKLEIKR
With B4, in assay [1], binding was put at a Kd of 0.0386 nM, the koff is 3.5e-05 s⁻¹, the kon is 906000 M⁻¹ s⁻¹ and the t½ came out at 5.5 h. In assay [2], this molecule had a Kd of 0.0294 nM, a dissociation rate constant (koff) of 2.68e-05 s⁻¹, a kon of 911000 M⁻¹ s⁻¹ and a t½ of 7.17 h.

B5: mAb13458 (antibody, V domains shown)
VH: EVQLVESGGGLVQPGRSLRLSCAASGFTFDDYAMHWVRQAPGKGLEWVSGISWNSGSIGYADSVKGRFTISRDNAKNSLYLQMNSLRAEDTALYYCAKDIGITTPYWGQGTLVTVSS
VL: AIQMTQSPSSLSASVGDRVTITCRASQDIRNDLGWYQQKPGKAPKLLIYSASSLQTGVPSRFSGSGSGTDFTLTISSLHPEDFATYYCLQDYWYTWTFGQGTKVEIKR
Regarding B5, in assay [1], the Kd worked out at 0.0784 nM, the koff was determined as 9.12e-05 s⁻¹, the kon stood at 1.16e+06 M⁻¹ s⁻¹ and the t½ was 2.11 h. Moreover, in assay [2], the Kd came out at 0.064 nM, the koff was 7.55e-05 s⁻¹, the kon was 1.18e+06 M⁻¹ s⁻¹ and the t½ was 2.55 h.

B6: mAb14289 (antibody, V domains shown)
VH: QVQLVQSGPEVKKPGASVKVSCKASGYTFTSYAISWVRQAPGQGLEWMGWISAYNGNTNYAQKLQGRVTMTTDTFTSTAYMELRSLRSDDTAVYYCAVPADHITFDYWGQGTLVTVSS
VL: EIVLTQSPGTLSLSPGERATLSCRASQSVSSYLAWYQQKPGQAPRLLIHGASSRATGIPDRFSGSGSGTDFTLTISRLEPEDFAVYYCQQYGSSFLTFGGGTKVEIKR
Turning to B6, in assay [1], the Kd was found to be 0.0907 nM, the koff amounted to 0.000128 s⁻¹, the kon is 1.41e+06 M⁻¹ s⁻¹ and the t½ worked out at 1.5 h. For the same molecule, in assay [2], binding was put at a Kd of 0.0628 nM, the koff was determined as 8.95e-05 s⁻¹, the kon worked out at 1.43e+06 M⁻¹ s⁻¹ and the t½ was found to be 2.15 h.

B7: mAb14283 (antibody, V domains shown)
VH: QVQLQESGPGLVKPSGTLSLTCDVSGGSISSNNWWSWVRQRPGKGLQWIGEIYHNENTNYNPSLKSRVIMSIDKSKNQFSLKLTSVTAADTAVYYCARGDVLDWFDPWGQGTLVTVSS
VL: QSALTQPASVSGSPGQSTTISCTGTSSDVGGYNYVSWYQQYPGKAPKLMIYDVTNRPSGVSHRFSGSKSGNTASLTISGLQAEDEADYYCSSYTSSSTVIFGGGTKLTVLG
In assay [1], B7 showed a Kd of 0.0631 nM, a koff of 9.59e-05 s⁻¹, a kon of 1.52e+06 M⁻¹ s⁻¹ and a t½ of 2.01 h. Moreover, in assay [2], the Kd is 0.0524 nM, the dissociation rate constant (koff) amounted to 8.14e-05 s⁻¹, the kon was 1.55e+06 M⁻¹ s⁻¹ and the t½ is 2.37 h.

B8: mAb14286 (antibody, V domains shown)
VH: QVQLVQSGAEVKKPGASVKVSCKASGYTFTDYFIHWVRQAPGQGLEWMGWINPTSGGTNYAQKFRGRVTMTRDTSISTAYVELSRLRSDDTALYYCARDLPFYSDTKQFDYWGQGTLVTVSS
VL: B7 VL with S13Y, T18I, Y41H, Y51F, T54S, H62N, I77F, V99L, I100V
In assay [1], B8 registered a Kd of 0.18 nM, a koff of 0.000528 s⁻¹, a kon of 2.94e+06 M⁻¹ s⁻¹ and a t½ of 0.365 h. In assay [2], this molecule returned a Kd of 0.222 nM, a koff of 0.000655 s⁻¹, a kon of 2.95e+06 M⁻¹ s⁻¹ and a t½ of 0.293 h.

B9: mAb14284 (antibody, V domains shown)
VH: QITLKESGPTLVKPTQTLTLTCTFSGFSFSTSGVGVGWIRQPPGKTLEWLALIYWDDDKRYSPSLKSRLTITKDTSKNQVVLTMTNMDPVDTATYFCAHHGIPTIFGYWGQGALVTVSS
VL: QSALTQPASVSGSPGQSITISCTGTSSDLGVFNYVSWYQQHPGKAPKLMIYEVTNRPSGVSNRFSGSKSGNTASLTISGLQAEDEADYYCSSYTTSSTVFGGGTKLTVLG
In assay [1], B9 showed a Kd of 0.027 nM, a koff of 2.24e-05 s⁻¹, a kon of 830000 M⁻¹ s⁻¹ and a t½ of 8.6 h. In assay [2], this molecule had a Kd of 0.0255 nM, a koff of 2.12e-05 s⁻¹, a kon of 831000 M⁻¹ s⁻¹ and a t½ of 9.08 h.

B10: mAb14235 (antibody, V domains shown)
VH: QITLKESGPTLVKPTQTLTLTCTFSGFSLNTGGVGVGWIRQPPGNALEWLALIYWDDDKRYNPSLKTRLTISKDTSKNQVVLTMTNMDPVDTATYFCAHLTIAVIVDFWGQGTLVTVSS
VL: B9 VL with G24A, L29V, V31T, F32Y, Y38F, Q40H, S96T, T98I
Consider B10, for which, in assay [1], binding was characterised by a dissociation constant (Kd) of 0.0612 nM, the koff was determined as 6.68e-05 s⁻¹, the kon amounted to 1.09e+06 M⁻¹ s⁻¹ and the t½ was 2.88 h. Further, in assay [2], the affinity, expressed as Kd, was 0.0627 nM; the koff is 6.89e-05 s⁻¹; the kon stood at 1.1e+06 M⁻¹ s⁻¹; the t½ is 2.79 h.

B11: mAb14255 (antibody, V domains shown)
VH: QVQLQESGPGLVKPSETLSLTCTVSGGSISGYYWSWIRQPPGKGLDWIGYIYYRGNTNYNPSLKSRVTISVDTSNNQFSLKLSSVTAADTAVYYCARYGEGYGDASGYHFDYWGQGTLVTVSS
VL: QSALTQPASVSGSPGQSITISCTGTSSDVGSYNLVSWYQQHPGKAPKLMIYEDSKRPSGVANPFSGSKSGNTASLTISGLQAEDEADYYCSSYAGSSTWVFGGGTKLTVLG
Regarding B11, in assay [1], binding was characterised by a dissociation constant (Kd) of 0.118 nM, the koff worked out at 0.00025 s⁻¹, the kon worked out at 2.12e+06 M⁻¹ s⁻¹ and the t½ is 0.77 h. In assay [2], this molecule yielded a Kd of 0.0726 nM, a koff of 0.000159 s⁻¹, a kon of 2.19e+06 M⁻¹ s⁻¹ and a t½ of 1.21 h.

B12: mAb14247 (antibody, V domains shown)
VH: QITLKESGPTLVKPTQTLTLTCTFSGFSLSTSAVGVGWIRQPPGKALEWLALIYWDDDKRYSPSLKSRLTITKDTSKNQLVLTMTNVDPVDTATYYCAHHTIQLIFDYWGQGTLVTVSS
VL: QSALTQPASVSGSPGQSITISCTATSSDVGNYNYVSWYQQHPGKAPKLMIYEVSNRPSGVSNRFSGSKSGNTASLTISGLQAEDEADYYCSSYTSSSTPLVFGGGTKLTVLG
On to B12, for which, in assay [1], the equilibrium dissociation constant (Kd) was 0.127 nM, the koff came to 0.00015 s⁻¹, the kon turned out to be 1.18e+06 M⁻¹ s⁻¹ and the t½ amounted to 1.28 h. Moreover, in assay [2], the Kd turned out to be 0.131 nM, the off-rate (koff) came to 0.000156 s⁻¹, the kon came to 1.19e+06 M⁻¹ s⁻¹ and the t½ was found to be 1.23 h.

B13: mAb14313 (antibody, V domains shown)
VH: EVQLVESGGGLVQPGRSLRLSCVASGFTFDDSAMHWVRQPPGKGLEWVSGISWNSGIIGYAESVKGRFIISRDNAKNSLFLHMRGLRPEDTAVYYCARDRLELSYYYYGMDVWGQGTTVTVSS
VL: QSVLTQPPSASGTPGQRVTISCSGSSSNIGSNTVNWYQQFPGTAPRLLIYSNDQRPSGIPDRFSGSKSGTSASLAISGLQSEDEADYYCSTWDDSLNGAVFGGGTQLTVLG
As for B13, in assay [1], the Kd was found to be 0.0582 nM, the off-rate (koff) amounted to 0.000146 s⁻¹, the kon came to 2.52e+06 M⁻¹ s⁻¹ and the t½ stood at 1.32 h. In addition, in assay [2], the Kd is 0.0422 nM, the koff was 9.97e-05 s⁻¹, the kon was 2.36e+06 M⁻¹ s⁻¹ and the t½ was 1.93 h.
